Residue numbers refer to the chain shown, from its start.
T1: murine β-Klotho (murine, UniProt Q99N32 1-1043)
T1 construct: Full length (GenBank NP-112457), transiently expressed on HEK-293T cells; also called mu β-klotho; mouse β-Klotho
T1 sequence: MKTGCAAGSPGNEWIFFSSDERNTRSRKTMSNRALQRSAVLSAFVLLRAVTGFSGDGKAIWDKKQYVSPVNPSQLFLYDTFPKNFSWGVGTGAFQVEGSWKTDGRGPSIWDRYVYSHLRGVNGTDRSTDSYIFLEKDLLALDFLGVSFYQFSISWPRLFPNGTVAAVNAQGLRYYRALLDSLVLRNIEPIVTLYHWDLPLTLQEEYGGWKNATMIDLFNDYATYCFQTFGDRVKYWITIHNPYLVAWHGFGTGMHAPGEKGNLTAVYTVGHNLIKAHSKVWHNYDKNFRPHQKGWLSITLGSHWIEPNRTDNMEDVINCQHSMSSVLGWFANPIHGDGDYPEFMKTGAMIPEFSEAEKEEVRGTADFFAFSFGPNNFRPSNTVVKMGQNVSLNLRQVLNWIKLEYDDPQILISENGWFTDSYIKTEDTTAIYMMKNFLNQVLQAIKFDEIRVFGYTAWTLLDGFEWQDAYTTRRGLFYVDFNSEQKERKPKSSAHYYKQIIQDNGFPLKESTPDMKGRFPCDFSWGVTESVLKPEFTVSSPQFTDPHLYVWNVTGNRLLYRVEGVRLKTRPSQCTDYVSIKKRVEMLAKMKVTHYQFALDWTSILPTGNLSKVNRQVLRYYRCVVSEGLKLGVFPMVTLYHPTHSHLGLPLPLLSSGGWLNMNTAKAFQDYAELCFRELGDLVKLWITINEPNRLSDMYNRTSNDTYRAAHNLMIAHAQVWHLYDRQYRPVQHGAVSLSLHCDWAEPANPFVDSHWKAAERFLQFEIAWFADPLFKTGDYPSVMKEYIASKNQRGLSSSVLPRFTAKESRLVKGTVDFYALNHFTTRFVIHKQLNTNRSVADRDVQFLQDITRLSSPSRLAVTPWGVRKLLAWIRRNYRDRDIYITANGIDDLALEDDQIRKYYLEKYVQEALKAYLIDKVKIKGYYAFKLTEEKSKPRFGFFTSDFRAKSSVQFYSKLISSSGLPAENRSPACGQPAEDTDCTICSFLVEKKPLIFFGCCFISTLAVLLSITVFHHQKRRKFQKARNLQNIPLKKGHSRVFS

B1: 67C10.1 (antibody, V domains shown)
VH: EVQLVQSGAEVKKPGESLKISCQGSGYSFSSYWIGWVRQMPGKGLEWMGIIYPGDSDTRYSPSFQGQVTISADKSINTAYLQWSSLKASDTAIYYCARRASRGYRYGLAFAIWGQGTMVTVSS
VL: DFVMTQTPLSLPVTPGEPASISCRSSQSLLNSDDGNTYLDWYLQKPGQSPQLLIYTLSYRASGVPDRFSGSGSGTDFTLKISRVEAEDVGVYYCMQRIEFPITFGQGTRLEIKR
B2: 49G3.3 (antibody, V domains shown)
VH: QVTLKESGPVLVKPTETLTLTCTVSGFSLSNPRMGVSWIRQPPGKALEWLTHIFSNDEKSYSTSLKSRLTISKDTSKSQVVLSMTNMDPVDTATYYCVRVDTLNYHYYGMDVWGQGTTVTVSS
VL: DIQMTQSPSSLSASIGDRVTITCQASQGISNYLNWYQQKPGKAPKLLIYDASNLETGVPSRFSGSGSGTDFTFTISSLQPEDIATYYCHQYDDLPLTFGGGTKVEIRR
B3: 51E5.1 (antibody, V domains shown)
VH: QVQLQQWGAGLLKPSETLSLTCAVYGGSFSGYYWSWIRQPPGKGLEWIGELDHSGSINYNPSLKSRVTISVDTSKNQFSLKLTSVTAADTAVYYCARVLGSTLDYWGQGTLVTVSS
VL: DIQMTQSPSSLSASVGDRVTITCRASQDIRNDLGWYQQKPGKAPNRLIYAASSLQFGVPSRFSGSGSGTEFTLTISSLQPEDFATYYCLQHSSYPLTFGGGTRVEIKR
B4: 66G2.1 (antibody, V domains shown)
VH: QVQLVESGGGVVQPGRSLRLSCAASGFTFSSYGMHWVRQAPGKGLEWVAGISYDGSNKNYADSVKGRITISRDNPKNTLYLQMNSLRAEDTAVYYCATTVTKEDYYYYGMDVWGQGTTVTVSS
VL: B3 VL with D28G, N45K, S53N, F56S, E70K, S76N, H91L, S92N, S93G, R103K
B5: 65C3.1 (antibody, V domains shown)
VH: QVQLQESGPGLVKPSETLSLTCTVSGGSISSYYWSWIRQPPGKGLEWIGYIYYTGSTNYNPSLKSRVTISVDTSKNQFSLKLSSVTAADTAVYYCAREYYYGSGSYYPWGQGTLVTVSS
VL: EMVMTQSPATLSVSPGERATLSCRASQSVSSQLAWYQEKPGRAPRLLIYGASNRAIDIPARLSGSGSGTEFTLTISSLQSEDFAVYYCQQYNNWPWTFGQGTKVEFKR
B6: 67F5.1 (antibody, V domains shown)
VH: B5 VH with Q5K, T54S, S56N
VL: EIVMTQSPATLSVSPGERVTLSCRASQSVSSNLAWYQQKPGQAPRLLIHGSSNRAIGIPARFSGSGSGTEFTLTISSLQSADFAVYNCQQYEIWPWTFGQGTKVEIKR

Assays:
[1] = molecular target: T2, cynomologous monkey FGFR1c/cynomologous monkey β-Klotho (co-transfected) (cynomologous monkey); assay: flow cytometry, transfected HEK293T; mock-transfected cells 688
T2 construct: whole, on cells; also called Cyno FGFR1c/Cyno β-Klotho

human FGFR1c [2] = molecular target: T3, human FGFR1c (human, UniProt P11362 22-822); assay: as above
T3 construct: Full length (GenBank NP-075598), expressed on transfected 293T cells; also called huFGFR1c; FGFR1c alone

[3] = molecular target: T4, human FGFR1c/human β-Klotho complex (FGF21 receptor) (human, UniProt P11362 22-822); assay: as above
T4 construct: Both full-length proteins co-expressed on cells (HEK293T, CHO, L6); also called HuFGFR1c/Hu β-Klotho; huFGF21R

[4] = molecular target: T5, huBeta_Klotho (1-193, 419-1044) (muBetaKLOTHO Y194-416G) (human; murine, UniProt Q86Z14 1-1044); assay: flow cytometry, transfected HEK-293T
T5 construct: also called Chimera 5; Construct 5

murine β-Klotho = molecular target: T1, murine β-Klotho; assay: flow cytometry, transfected HEK-293T
[5] = molecular target: T6, huBeta_Klotho (82-1044) (muBeta KLOTHO 1-81F) (murine; human, UniProt Q86Z14 1-1044); assay: flow cytometry, transfected HEK-293T
T6 construct: also called Chimera 12; Construct 12

[6] = molecular target: T7, huBeta_Klotho (1-521, 738-1044) (muBeta KLOTHO 520P-735A) (human; murine, UniProt Q86Z14 1-1044); assay: flow cytometry, transfected HEK-293T
T7 construct: also called Chimera 9; Construct 9

human FGFR1c [7] = molecular target: T3, human FGFR1c; assay: flow cytometry, transfected HEK293T
human FGFR1c [8] = molecular target: T3, human FGFR1c; assay: flow cytometry, transfected HEK293T; mock-transfected cells 723
[9] = molecular target: T4, human FGFR1c/human β-Klotho complex …; assay: as above
[10] = molecular target: T2, cynomologous monkey FGFR1c/cynomologous …; assay: flow cytometry, transfected HEK293T; mock-transfected cells 695
human FGFR1c [11] = molecular target: T3, human FGFR1c; assay: as above
[12] = molecular target: T4, human FGFR1c/human β-Klotho complex …; assay: as above
[13] = molecular target: T2, cynomologous monkey FGFR1c/cynomologous …; assay: flow cytometry, transfected HEK293T; mock-transfected cells 705
human FGFR1c [14] = molecular target: T3, human FGFR1c; assay: as above
[15] = molecular target: T4, human FGFR1c/human β-Klotho complex …; assay: as above
[16] = molecular target: T2, cynomologous monkey FGFR1c/cynomologous …; assay: flow cytometry, transfected HEK293T; mock-transfected cells 632
human FGFR1c [17] = molecular target: T3, human FGFR1c; assay: as above
[18] = molecular target: T4, human FGFR1c/human β-Klotho complex …; assay: as above

Binder | GeoMean [1] | GeoMean (human FGFR1c [2]) | GeoMean [3] | binding result [4] | binding result (murine β-Klotho) | binding result [5] | binding result [6] | binding result (human FGFR1c [7]) | GeoMean (human FGFR1c [8]) | GeoMean [9] | GeoMean [10] | GeoMean (human FGFR1c [11]) | GeoMean [12] | GeoMean [13] | GeoMean (human FGFR1c [14]) | GeoMean [15] | GeoMean [16] | GeoMean (human FGFR1c [17]) | GeoMean [18]
B1 | 4060 | 780 | 18900 | binds | no binding | binds | no binding | no binding |  |  |  |  |  |  |  |  |  |  | 
B2 |  |  |  | no binding | no binding | no binding | binds | no binding |  |  |  |  |  |  |  |  |  |  | 
B3 |  |  |  | binds | no binding | binds | no binding | no binding | 747 | 21000 |  |  |  |  |  |  |  |  | 
B4 |  |  |  | binds | no binding | binds | no binding | no binding |  |  | 21600 | 780 | 16700 |  |  |  |  |  | 
B5 |  |  |  | binds | no binding | binds | binds | no binding |  |  |  |  |  | 24600 | 719 | 18800 |  |  | 
B6 |  |  |  | binds | no binding | binds | no binding | no binding |  |  |  |  |  |  |  |  | 15800 | 757 | 13900

From patent publication US20120328616A1 (Amgen, published 2012)
